Reference: article PMC8571082 (2021)

How the values were obtained:
[1] = target: T1, factor inhibiting HIF-1 (FIH-1), full-length (human, UniProt Q9NWT6 1-349); assay: ITC; +αKG, -EDTA
[2] = target: T1, factor inhibiting HIF-1 (FIH-1), …; assay: ITC; -αKG, +EDTA
[3] = target: T1, factor inhibiting HIF-1 (FIH-1), …; assay: ITC; +αKG, +EDTA
[4] = target: T1, factor inhibiting HIF-1 (FIH-1), …; assay: ITC; -αKG, -EDTA

T1 sequence (Q9NWT6 whole entry): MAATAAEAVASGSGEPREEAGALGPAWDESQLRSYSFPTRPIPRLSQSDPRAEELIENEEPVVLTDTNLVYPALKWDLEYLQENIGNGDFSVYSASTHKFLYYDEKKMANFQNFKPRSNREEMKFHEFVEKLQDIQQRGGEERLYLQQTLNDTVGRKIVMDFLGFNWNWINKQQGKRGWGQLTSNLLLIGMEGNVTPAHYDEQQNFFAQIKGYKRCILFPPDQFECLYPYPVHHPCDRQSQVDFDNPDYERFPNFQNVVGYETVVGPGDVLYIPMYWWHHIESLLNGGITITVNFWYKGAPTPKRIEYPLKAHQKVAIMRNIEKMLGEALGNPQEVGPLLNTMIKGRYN

- Kd [1]: 1000 nM
- Kd [2]: 8100 nM
- Kd [3]: 2200 nM
- Kd [4]: 3400 nM
B1: Mint3NT, N-terminal fragment (1–214) of Mint3 (domain or fragment)
chain: MDFPTISRSPSGPPAMDLEGPRDILVPSEDLTPDSQWDPMPGGPGSLSRMELDESSLQELVQQFEALPGDLVGPSPGGAPCPLHIATGHGLASQEIADAHGLLSAEAGRDDLLGLLHCEECPPSQTGPEEPLEPAPRLLQPPEDPDEDSDSPEWVEGASAEQEGSRSSSSSPEPWLETVPLVTPEEPPAGAQSPETLASYPAPQEVPGPCDHED
